Source: patent US9526766B2, “Potentiation of antibiotic treatment with a protein-lipid complex” (priority 2012, dated 2016)
Where two headings read alike, the source gives them in different places.

B1: ALAFAC: non-covalent complex of alpha-lactalbumin and fatty acid (oleic acid); labeled HAMLET or HL in drawings and tables (protein, UniProt P00709 20-142, looked up)
Alpha-lactalbumin: KQFTKCELSQLLKDIDGYGGIALPELICTMFHTSGYDTQAIVENNESTEYGLFQISNKLWCKSSQVPQSRNICDISCDKFLDDDITDDIMCAKKILDIKGIDYWLAHKALCTEKLEQWLCEKL
modifications: complexed with oleic acid

Legend:
[1] = system: S. aureus NRS70 (MRSA) nasopharyngeal colonization; test: Murine nasopharyngeal colonization model, intranasal treatment; format: in vivo, Staphylococcus aureus; conditions: for Colonization burden: mice colonized with NRS70 for 48 hours, methicillin single dose 100 μg (5,000 μg/ml) alone, ALAFAC alone at the same dose
Procedure: Methodology: Six-week-old female BALB/cByJ mice from Jackson Laboratories (Bar Harbor, Me., U.S.A.) were maintained in filter-top cages on standard laboratory chow and water ad libitum until use. Mice were colonized as described previously. In short, 20 μl of a bacterial suspension containing 5×10^6 CFUs of EF3030 pneumococci, 1×10^8 CFUs of SP670 pneumococci, or 5×10^7 NRS70 methicillin-resistant S. aureus in PBS were pipetted into the nares of non-anesthetized mice. After 48 hours, mice were treated with 20 μl gentamicin (0-5,000 μg/mL), 20 μl penicillin (0-5,000 μg/mL), or 20 μl of methicillin (0-5,000 μg/ml) in the presence or absence of 50 or 100 μg ALAFAC in the nares for 6 hours as a single dose. Colonization burden was then assessed after euthanizing the animals by enumerating viable bacteria from harvested nasopharyngeal tissue after the nasal wash. Nasopharyngeal tissue was dissected out as described by removing the upper skull bone, and harvesting the tissue present in the nasal conchae with forceps. Bacterial load was measured by determining viable plate counts from the homogenized tissue.
Mice were colonized as described. In short, 10 μl of a bacterial suspension containing 5×10^7 CFUs of NRS 70 staphylococci in PBS were pipetted into the nares of non-anesthetized mice. After 24 hours, mice were treated with 20 μl methicillin (0-100 μg or 0-5,000 μg/mL) in the presence or absence of 20 μl (100 μg) ALAFAC in the nares for 12 hours. Colonization burden was then assessed after euthanizing the animals by enumerating viable bacteria both in a nasopharyngeal lavage obtained by injecting 100 μL PBS in the trachea of mice and collecting it as it flowed out the nares, and from harvested nasopharyngeal tissue after the nasal wash. Nasopharyngeal tissue was dissected out as described by removing the upper skull bone, and harvesting the tissue present in the nasal conchae with forceps. Bacterial load was measured by determining viable plate counts from the nasal lavage or from homogenized tissue as described above.

[2] = in vivo; cited from earlier work
NRS 384 Staphylococci = test: Radioisotope 45Ca2+ transport assay; format: cell-based, Staphylococcus aureus; conditions: ALAFAC addition, Ruthenium Red 30 μM
Procedure: Radioisotope ^45Ca^2+ transport assays. Staphylococcus aureus was grown to log phase, washed three times and resuspended in 1×PBS containing 0.5 mM CaCl2 (CaPBS). No glucose was added in order to minimize the interference created by extrusion of Ca^2+ via ATPase pumps. ^45CaCl2 (PerkinElmer; Waltham, Mass., USA) was added to the cells at a final concentration of 2.5 μCi/mL, followed by inhibitor compound, with each addition given two minutes equilibration time. The untreated baseline sample was measured at this point. The sample was then divided, ALAFAC was added to one of the tubes, and ^45Ca^2+ uptake was measured at various intervals. For each sample, 100 μL was dispensed onto Millipore 0.3 μm PHWP filters (EMD Millipore; Billerica, Mass., USA) presoaked in CaPBS, and immediately washed with 9 mL of CaPBS via syringe filtration through Millipore Swinnex® filter holders. Filters were placed in scintillation vials with 5 mL of scintillation fluid, and CPMs were detected on a Wallac 1409 liquid scintillation counter (Wallac Oy, Turku, Finland). The results were expressed as ΔCPM that was calculated for each sample at the indicated time points as the difference between ALAFAC-treated and untreated samples.

Pseudomonas aeruginosa = conditions: concentrations up to 5 mg/ml; cited from earlier work
Escherichia coli = conditions: concentrations up to 5 mg/ml; cited from earlier work
Staphylococci [3] = test: Gentamicin, Vancomycin FL and Bocillin FL binding; format: cell-based, Staphylococcus aureus; conditions: for Cell-associated level of vancomycin on addition of ALAFAC / Bocillin FL association with cells on addition of ALAFAC: 100 μg/mL ALAFAC
Procedure: Gentamicin, Vancomycin and Bocillin FL Binding. We adapted a previously described method using AlexaFluor 488-gentamicin, vancomycin FL and Bocillin FL as reporter antibiotics to investigate association of these compounds with the staphylococcal cells. In brief, indicated strains were grown in TSB to an OD600nm of 0.5. Antibiotics were added at the following concentrations: Gentamicin at 50 μg/mL, Vancomycin FL at 20 μg/mL, Bocillin FL at 25 μg/mL alone, or in combination with ALAFAC at 100 μg/mL.
After 30 minutes, cultures were centrifuged at 9,000×g for 4 min, washed four times with PBS, and resuspended in a small volume of PBS. Cells were lysed by 5 successive freeze thaw cycles at −80° C. and 37° C. for 5 min each as described. The Bocillin FL, vancomycin FL or Alexa Fluor 488-gentamicin concentration was determined by measuring the amount of fluorescent material in a Synergy 2 microplate reader (Biotek) using excitation and emission wavelengths set at 485 and 530 nm, respectively. Linearity was obtained between 2 and 800 μg/mL; (R^2=0.9983) for AlexaFluor 488-gentamicin, between 0.5 and 100 μg/mL; (R^2=0.9928) for Bocillin FL, and between 0.25 and 50 μg/mL; (R^2=0.9919) for Vancomycin FL, with binding expressed as a ratio of the fluorescence of each sample divided with the sample protein content, determined by the 280/260 nm ratio using the using a BioTek Synergy 2 plate reader with the Take3 microdrop addition (Biotek)

Staphylococci [4] = conditions: concentrations up to 5 mg/ml; cited from earlier work
healthy human cells = conditions: cited from earlier work

Molecule	Minimum antibiotic concentration for bactericidal (>3 log10) activity on murine nasopharyngeal colonization ([1]; NRS70, mice, within 12 hours, antibiotic alone) [μg/dose]	MRSA colonization, nasopharyngeal tissue ([1]; mice colonized with NRS 70 for 24 h, one dose, 100 μg methicillin alone or with 100 μg ALAFAC, 12 hours)	Colonization burden [1]	Toxic side effects [2]	Intracellular Ca2+ (45Ca2+ uptake) (NRS 384 Staphylococci)	Bactericidal activity (Pseudomonas aeruginosa)	Bactericidal activity (Escherichia coli)	Increase of cell-associated level of gentamicin by ALAFAC (Staphylococci [3]; NRS384, ALAFAC 100 μg/mL, P=0.09) [fold]	Cell-associated level of vancomycin on addition of ALAFAC (Staphylococci [3]; VISA strain NRS 1)	Bocillin FL association with cells on addition of ALAFAC (Staphylococci [3]; methicillin-resistant strain NRS 384)	Bocillin FL association with cells on addition of ALAFAC (Staphylococci [3]; methicillin-sensitive strain)	Cell-associated level of vancomycin on addition of ALAFAC (Staphylococci [3]; vancomycin-sensitive strain)	Bactericidal activity (Staphylococci [4])	Storage time (physiological buffer (0.9% saline or PBS) at 4° C.)	Storage time (room temperature)	Toxicity (healthy human cells)
COc1cccc(OC)c1C(=O)N[C@@H]1C(=O)N2[C@@H]1SC(C)(C)[C@@H]2C(=O)O [Methicillin, methicillin]	>100	failed to significantly reduce	no effect	–	–	–	–	–	–	–	–	–	–	–	–	–
B1	–	–	no effect	without showing any toxic side effects	rose immediately	no detectable activity	no detectable activity	2.6	significantly increased	significantly increased	no significant increase	did not increase	no detectable activity	at least 3 months	at least three	no toxicity
